From US20250041416A1 (Innovent, published 2025)
Substitutions are numbered along the chain they refer to. Numbers in names are those of the source.

B1: anti-P329G mutation-specific single chain antibody-rabbit Fc fusion protein (Fc fusion)
chain: EVQLVESGGGLVQPGGSLRLSCAASGFTFSRYWMNWVRQAPGKGLEWVGEITPDSSTINYAPSLKGRFTISRDNAKNSLYLQMNSLRAEDTAVYYCARPYDYGAWFASWGQGTLVTVSSGGGGSGGGGSGGGGSGGGGSQAVVTQEPSLTVSPGGTVTLTCRSSTGAVTTSNYANWVQEKPDHLFTGLIGGTNKRAPGTPARFSGSLLGGKAALTLSGAQPEDEAEYYCALWYSNHWVFGGGTKLTVLGGGGSSKPTCPPPELLGGPSVFIFPPKPKDTLMISRTPEVTCVVVDVSQDDPEVQFTWYINNEQVRTARPPLREQQFNSTIRVVSTLPIAHQDWLRGKEFKCKVHNKALPAPIEKTISKARGQPLEPKVYTMGPPREELSSRSVSLTCMINGFYPSDISVEWEKNGKAEDNYKTTPAVLDSDGSYFLYSKLSVPTSEWQRGDVFTCSVMHEALHNHYTQKSISRSPGK
notes: scFv of the P329G CAR extracellular domain fused to rabbit Fc; also called anti-PG scFv fusion protein; anti-PG scFv
B2: ADI-38497 Fab (Fab, V domains shown)
VH: QLQLQESGPGLVKPSETLSLTCTVSGGSIVSSSYYWTWIRQPPGKGLEWIGSISIAGSTYYNPSLKSRVTISVDTSKNQFSLKLSSVTAADTAVYYCARDRGDQILDVWSQGTMVTVSS
VL: DIQMTQSPSSLSASVGDRVTITCRASQSISRYLNWYQQKPGKAPKLLIYAASSLQSGVPSRFSGSGSGTDFTLTISSLQPEDFATYYCQQKYFDITFGGGTKVEIK
B3: ADI-34861 (antibody, V domains shown)
VH: B2 VH with V30S, T37G, I55Y, A56S, Q104T, S110G
VL: B2 VL
notes: also called BCMA parent antibody ADI-34861
B4: ADI-38497 (IgG as tested in Table 2) (antibody, V domains shown)
VH: B2 VH
VL: B2 VL
B5: ADI-38484 (IgG as tested in Table 2) (antibody, V domains shown)
VH: QVQLVQSGAEVKKPGSSVKVSCKASGGTFSNDVISWVRQAPGQGLEWMGVIIPIFGIANYAQKFQGRVTITADESTSTAYMELSSLRSEDTAVYYCARGRGYYSSWLHDIWGQGTMVTVSS
VL: DIQMTQSPSSLSASVGDRVTITCQASQDITNYLNWYQQKPGKAPKLLIYDASNLETGVPSRFSGSGSGTDFTFTISSLQPEDIATYYCQQAFDLITFGGGTKVEIK
B6: ADI-34857 (antibody, V domains shown)
VH: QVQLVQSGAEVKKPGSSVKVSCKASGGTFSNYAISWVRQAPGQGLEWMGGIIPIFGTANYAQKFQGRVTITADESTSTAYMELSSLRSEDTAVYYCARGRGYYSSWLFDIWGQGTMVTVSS
VL: B5 VL
notes: also called BCMA parent antibody ADI-34857
B7: ADI-38484 Fab (Fab, V domains shown)
VH: B5 VH
VL: B5 VL

Tests used:
ADI-38497 WT antibody = biological target: T1, ADI-38497 WT antibody; test: SPR (Biacore T200), avidity format: ADI-38497 WT IgG captured on anti-Fab IgG on an HLC chip, anti-PG scFv fusion protein in the mobile phase
T1 construct: also called WT BCMA antibody
Experimental: The assay procedure was performed using a 10-fold dilution of 10×HBS-EP+(BR-1006-69, Cytiva) as the experimental buffer. […] A gradient dilution of anti-PG scFv (concentration gradient of 1.25 nM-40 nM, 2-fold dilution) was flowed over the chip surface from low to high concentration in a flow rate of 30 μl/min, with an association time of 180 s and a dissociation time of 300 s. Finally, the chip was regenerated with 10 mM glycine-HCl, pH 1.5 (BR-1003-54, Cytiva).
The data results were analyzed by Biacore T200 analysis software (version 3.1) using a 1:1 binding model.

Human BCMA-IHM [1] = biological target: T2, Human BCMA-IHM (human, UniProt Q02223 1-54, limits assumed); test: Biacore (SPR), Fab, human BCMA-IHM, monovalent
T2 construct: any tag or fusion partner is unknown
T2 sequence (looked up): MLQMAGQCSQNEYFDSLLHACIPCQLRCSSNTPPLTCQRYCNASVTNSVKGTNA

Human BCMA on cells [2] = biological target: T3, Human BCMA on cells (human, UniProt Q02223 1-184); test: cell binding on human BCMA CHO-S cells
T3 construct: whole, on cells; also called hBCMA-CHO GS; Human BCMA CHO-S
T3 sequence (looked up): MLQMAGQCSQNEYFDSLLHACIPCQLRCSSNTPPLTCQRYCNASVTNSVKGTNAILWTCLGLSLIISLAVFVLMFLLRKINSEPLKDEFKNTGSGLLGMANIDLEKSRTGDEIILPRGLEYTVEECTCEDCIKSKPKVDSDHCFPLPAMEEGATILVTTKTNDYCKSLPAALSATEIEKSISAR

Human BCMA on cells [3] = biological target: T3, Human BCMA on cells; test: cell binding on H929 cells (human BCMA)
Human BCMA-IHM [4] = biological target: T2, Human BCMA-IHM; test: ForteBio (BLI), IgG, human BCMA-IHM, monovalent
[5] = biological target: Cynomolgus monkey BCMA-Fc (cynomolgus monkey, UniProt A0A2K5UD97 1-53); test: ForteBio (BLI), IgG, cynomolgus monkey BCMA-Fc, avid
Cynomolgus monkey BCMA-Fc, sequence (A0A2K5UD97 entry or part of it): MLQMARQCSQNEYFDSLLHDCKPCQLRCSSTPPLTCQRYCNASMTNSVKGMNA

Binder | Cell Binding, FOB (Fold Over Background) (Human BCMA on cells [2]) | Cell Binding, FON (Fold Over Negative) (Human BCMA on cells [3]) | other results
B1 |  |  | binding result (ADI-38497 WT antibody): no binding
B2 |  |  | Kd (Human BCMA-IHM [1]): 0.104 nM
B3 | 4 fold | 6 fold | 
B4 | 8 fold | 26 fold | 
B5 | 11 fold | 35 fold | 
B6 | 2 fold | 5 fold | Kd (Human BCMA-IHM [4]): 27.7 nM; Kd [5]: 5.93 nM
B7 |  |  | Kd (Human BCMA-IHM [1]): 0.0132 nM
